According to patent US20050152916A1:
Several values for one entry are separate records, joined by “and”; a condition that tells them apart may be missing. Equal entries are not always repeated.

Columns and labels:
[1] = target: recombinant biotinylated L^d immobilized on a support, loaded with QL9 peptide (mouse) (UniProt P01887)
[2] = target: L^d on cells loaded with QL9 peptide (mouse) (UniProt P01887)
[3] = target: 2C T-cell receptor (on T-cells of 2C TCR transgenic mice) (mouse); assay: flow cytofluorometry of purified 2C TCR transgenic lymph node T-cells
[4] = target: 2C T-cell receptor (on T-cells of 2C TCR transgenic mice) (mouse); assay: staining of purified CD8+ lymph node cells of 2C mice
[5] = target: recombinant biotinylated L^d immobilized on avidin-coated sheep red blood cells (mouse); assay: flow cytofluorometry of L^d-coated SRBC with anti-L^d antibody 30.5.7 (FIG. 8)

Sequence of recombinant biotinylated L^d immobilized on a support, loaded with QL9 peptide (mouse) (P01897 25-309 limits assumed, chain 1 of 2): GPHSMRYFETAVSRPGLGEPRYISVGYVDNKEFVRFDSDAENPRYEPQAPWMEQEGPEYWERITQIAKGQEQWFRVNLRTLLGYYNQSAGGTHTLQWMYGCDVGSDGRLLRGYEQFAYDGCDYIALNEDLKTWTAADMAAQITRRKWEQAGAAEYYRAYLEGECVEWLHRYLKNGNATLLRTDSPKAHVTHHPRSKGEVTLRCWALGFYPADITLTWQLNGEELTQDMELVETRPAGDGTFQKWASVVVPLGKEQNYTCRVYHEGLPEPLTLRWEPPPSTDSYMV
Sequence of recombinant biotinylated L^d immobilized on a support, loaded with QL9 peptide (mouse) (P01887 21-119 limits assumed, chain 2 of 2): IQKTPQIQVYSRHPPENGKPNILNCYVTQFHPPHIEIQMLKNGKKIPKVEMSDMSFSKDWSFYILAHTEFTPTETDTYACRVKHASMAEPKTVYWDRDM
Sequence of L^d on cells loaded with QL9 peptide (mouse) (P01897 25-362, chain 1 of 2): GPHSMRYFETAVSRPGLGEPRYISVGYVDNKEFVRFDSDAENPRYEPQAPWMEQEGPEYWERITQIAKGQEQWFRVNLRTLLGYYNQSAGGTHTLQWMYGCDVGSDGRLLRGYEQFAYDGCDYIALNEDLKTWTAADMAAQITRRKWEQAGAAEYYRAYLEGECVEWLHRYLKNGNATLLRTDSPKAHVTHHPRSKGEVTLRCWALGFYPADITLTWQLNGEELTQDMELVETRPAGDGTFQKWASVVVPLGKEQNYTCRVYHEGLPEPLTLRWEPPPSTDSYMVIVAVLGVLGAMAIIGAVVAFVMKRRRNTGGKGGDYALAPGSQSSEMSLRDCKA
Sequence of L^d on cells loaded with QL9 peptide (mouse) (P01887 21-119, chain 2 of 2): as the sequence (P01887 21-119 limits assumed, chain 2 of 2) above

For “2C T-cell receptor (on T-cells of 2C TCR transgenic mice)”, the percent of lymphocytes included in rosettes [1] was 30% and 40% and the percent of lymphocytes included in rosettes [2] was 30% and 40%.

In the case of “monoclonal antibody 1B2 (anti-clonotypic antibody to the 2C T-cell receptor)”, the percent of cells positive for staining [3] is reported as 97% and 98% and the percent of cells positive for staining [4] is reported as over 95%.

With monoclonal antibody 30.5.7 (anti-L^d) the percent of cells labeled [5] was 99.8%.
